The target in experiment [1] is platelet-derived growth factor-BB (PDGF-BB) (UniProt P01127). Nature of the experiment: equilibrium binding.
Experiment [2] addresses basic fibroblast growth factor (bFGF, FGF-2) (UniProt P09038). Nature of the experiment: binding assay, method not restated.
The target of experiment [3] is platelet-derived growth factor-BB (PDGF-BB) (UniProt P01127). Nature of the experiment: binding assay, method not restated.
Experiment [4] deals with transforming growth factor-β1 (TGF-β1) (UniProt P01137). Nature of the experiment: binding assay, method not restated.
In experiment [5] the target is vascular endothelial growth factor A (VEGF-A) (UniProt P15692). Nature of the experiment: binding assay, method not restated.
Experiment [6] concerns the target basic fibroblast growth factor (bFGF, FGF-2) (UniProt P09038). Nature of the experiment: equilibrium or kinetic binding, not said which.
The target in experiment [7] is transforming growth factor-β1 (TGF-β1) (UniProt P01137). The experiment is described as follows: equilibrium or kinetic binding, not said which.

For orientation: Kd means the equilibrium constant for the complex coming apart. Read a high Kd as a looser complex.

basic fibroblast growth factor (bFGF, FGF-2), sequence (P09038 143-288 limits assumed): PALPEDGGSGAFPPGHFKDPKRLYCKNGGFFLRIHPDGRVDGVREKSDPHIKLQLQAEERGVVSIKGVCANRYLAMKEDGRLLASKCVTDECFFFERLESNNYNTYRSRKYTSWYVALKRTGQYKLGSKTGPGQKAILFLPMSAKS
transforming growth factor-β1 (TGF-β1), sequence (P01137 279-390 limits assumed): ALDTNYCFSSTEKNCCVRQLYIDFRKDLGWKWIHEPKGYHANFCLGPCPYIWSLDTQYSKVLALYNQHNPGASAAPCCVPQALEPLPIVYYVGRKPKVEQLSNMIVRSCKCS
platelet-derived growth factor-BB (PDGF-BB), sequence (P01127 82-190 limits assumed): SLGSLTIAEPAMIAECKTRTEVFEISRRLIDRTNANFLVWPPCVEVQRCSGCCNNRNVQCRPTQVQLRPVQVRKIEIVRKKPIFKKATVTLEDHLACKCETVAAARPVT
vascular endothelial growth factor A (VEGF-A), sequence (P15692 other isoform, or with tags, fused parts or gaps limits assumed): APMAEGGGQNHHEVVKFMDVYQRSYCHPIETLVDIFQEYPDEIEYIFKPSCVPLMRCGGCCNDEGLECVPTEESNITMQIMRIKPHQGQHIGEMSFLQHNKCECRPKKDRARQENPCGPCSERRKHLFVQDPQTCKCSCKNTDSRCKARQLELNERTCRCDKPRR

As to “IIICS, variably-spliced domain of fibronectin (from UniProt P02751 2083-2202)”, the Kd in experiment [1] was found to be 350 nM; in experiment [2], 100 nM; in experiment [3] it was 100 nM; in experiment [4] it was 100 nM; in experiment [5], 100 nM; in experiment [6] it was 58 nM. This substance had a Kd in experiment [7] of 74 nM.

Values taken from patent US8691944.
